Paper PMC4298360 (2015)
Residue numbers refer to the chain shown, from its start.

B1: cynomolgus IL-2Rα, monomeric, his-tagged (receptor)
chain: ELCDDDPPKITHATFKAVAYKEGTMLNCECKRGFRRIKSGSPYMLCTGNSSHSSWDNQCQCTSSAARNTTKQVTPQPEEQKERKTTEMQSQMQLADQVSLPGHCREPPPWENEATERIYHFVVGQTVYYQCVQGYRALHRGPAESVCKMTHGKTRWTQPQLICTGETEPSQFPGEEEPQASPDGLPESETSRLVTTTDFRIQTEVAATMETFIFTTEYQ
B2: human IL-2Rα, monomeric, his-tagged (receptor)
chain: ELCDDDPPEIPHATFKAMAYKEGTMLNCECKRGFRRIKSGSLYMLCTGNSSHSSWDNQCQCTSSATRNTTKQVTPQPEEQKERKTTEMQSPMQPVDQASLPGHCREPPPWENEATERIYHFVVGQMVYYQCVQGYRALHRGPAESVCKMTHGKTRWTQPQLICTGEMETSQFPGEEKPQASPEGRPESETSCLVTTTDFQIQTEMAATMETSIFTTEYQVAVAGCVFLLISVLLLSGLTWQRRQRKSRRTI
B3: murine IL-2Rα, monomeric, his-tagged (receptor)
chain: ELCLYDPPEVPNATFKALSYKNGTILNCECKRGFRRLKELVYMRCLGNSWSSNCQCTSNSHDKSRKQVTAQLEHQKEQQTTTDMQKPTQSMHQENLTGHCREPPPWKHEDSKRIYHFVEGQSVHYECIPGYKALQRGPAISICKMKCGKTGWTQPQLTCVDEREHHRFLASEESQGSRNSSPESETSCPITTTDFPQPTETTAMTETFVLTMEYKVAVASCLFLLISILLLSGLTWQHRWRKSRRTI
B4: murine IL-2Rβγ heterodimeric Fc fusion (knobs-into-holes), biotinylated (Fc fusion)
chain 1: AVKNCSHLECFYNSRANVSCMWSHEEALNVTTCHVHAKSNLRHWNKTCELTLVRQASWACNLILGSFPESQSLTSVDLLDINVVCWEEKGWRRVKTCDFHPFDNLRLVAPHSLQVLHIDTQRCNISWKVSQVSHYIEPYLEFEARRRLLGHSWEDASVLSLKQRQQWLFLEMLIPSTSYEVQVRVKAQRNNTGTWSPWSQPLTFRTRPADPMKE
chain 2: WSSKVLMSSANEDIKADLILTSTAPEHLSAPTLPLPEVQCFVFNIEYMNCTWNSSSEPQATNLTLHYRYKVSDNNTFQECSHYLFSKEITSGCQIQKEDIQLYQTFVVQLQDPQKPQRRAVQKLNLQNLVIPRAPENLTLSNLSESQLELRWKSRHIKERCLQYLVQYRSNRDRSWTELIVNHEPRFSLPSVDELKRYTFRVRSRYNPICGSSQQWSKWSQPVHWGSHTVEENPSLFALEA
B5: human IL-2Rβγ heterodimeric Fc fusion (knobs-into-holes), biotinylated (Fc fusion)
chain 1: AVNGTSQFTCFYNSRANISCVWSQDGALQDTSCQVHAWPDRRRWNQTCELLPVSQASWACNLILGAPDSQKLTTVDIVTLRVLCREGVRWRVMAIQDFKPFENLRLMAPISLQVVHVETHRCNISWEISQASHYFERHLEFEARTLSPGHTWEEAPLLTLKQKQEWICLETLTPDTQYEFQVRVKPLQGEFTTWSPWSQPLAFRTKPAALGKDT
chain 2: LNTTILTPNGNEDTTADFFLTTMPTDSLSVSTLPLPEVQCFVFNVEYMNCTWNSSSEPQPTNLTLHYWYKNSDNDKVQKCSHYLFSEEITSGCQLQKKEIHLYQTFVVQLQDPREPRRQATQMLKLQNLVIPWAPENLTLHKLSESQLELNWNNRFLNHCLEHLVQYRTDWDHSWTEQSVDYRHKFSLPSVDGQKRYTFRVRSRFNPLCGSAQHWSEWSHPIHWGSNTSKENPFLFALEA
B6: cynomolgus IL-2Rβγ heterodimeric Fc fusion (knobs-into-holes), biotinylated (Fc fusion)
chain 1: B5 chain 1 with Q7R, A66T, T74A, L83M, V92M, E127K, L158M
chain 2: B5 chain 2 with T14A, A16T, T22S, H141R, T228S

What follows are binders tested against T1, IgG-IL-2 (monovalent fusion of wild-type human IL-2 to a non-targeted, effector-silent human IgG1) (human, UniProt P60568 21-153) (assay: SPR; steady state).

Question: Which Kd does the source give for B1 here?
Answer: The Kd was 30 nM.

Question: How did the Kd turn out when B2 was run?
Answer: The Kd was 15 nM.

Question: How did the Kd turn out when B3 was run?
Answer: The Kd was 110 nM.

What follows are binders tested against T2, IgG-(IL-2)2 (bivalent fusion of two wild-type human IL-2 to a non-targeted, effector-silent human IgG1) (human, UniProt P60568 21-153) (assay: SPR; steady state).

Question: Which Kd does the source give for B1 here?
Answer: Its Kd is 15 nM.

Question: With B2 as the binder, how does the Kd read?
Answer: The Kd was 5 nM.

Question: Which Kd does the source give for B3 here?
Answer: Its Kd is 30 nM.

These binders were tested against T1, IgG-IL-2 (monovalent fusion of …) (assay: SPR).

Question: With B4 as the binder, how does the koff read?
Answer: Its koff is 0.00065 s⁻¹.

Question: B5 was tested. Which koff did it give?
Answer: Its koff is 3.8e-05 s⁻¹.

Question: How did the koff turn out when B6 was run?
Answer: Its koff is 0.00011 s⁻¹.

The binders below were run against T2, IgG-(IL-2)2 (bivalent fusion of two …) (assay: SPR).

Question: With B4 as the binder, how does the koff read?
Answer: Its koff is 9.3e-05 s⁻¹.

Question: How did the koff turn out when B5 was run?
Answer: Its koff is 8.1e-06 s⁻¹.

Question: With B6 as the binder, how does the koff read?
Answer: Its koff is 5.3e-05 s⁻¹.
